Measurements as given in the DeepSol protein solubility set.

Experiment: soluble on expression in E. coli; label from the status in PepcDB or PDB records

Sequence	soluble on expression in E. coli
MKVVGVTSCIAGLAHTPMAAKALEKAGVKLGHDVKIEQQGAMGTIDEITPAEVSAADVVIIAADKVIDGEDRFKGKPVVRVKIGQCVANGEAVLSKVVAAIEARKQKEAN	not soluble
MKWYTKYLQVYEKPFSEAPQEIVEEVRNKLKLLQSDNPLVTVSLIGYNEEKHLLASLWSLSEMKCKYPIEIIGTDNDSKDQTATIYEATGIPYVIEHQHSCGHARLCGLKRAKGKYHINIDSDTMYPPHYVETMVDALERPGIVAVSSLWSYIPDKEHSWVGLKIYEFIRDIHLWIQSIKRPELSVRGLVFAYRTDYARQVGIRTDIRRGEDGSLALRLKEYGNIYFIRKRKARAITGYGTISADGSLFNSFKVRAIYALKNIGRVFTRKKEYKDEDDNLIKSLEHHHHHH	soluble
MKYSEIFKKRLGCKNTDEVFNYLLSHMKETIKGWDFFVAWEKVMNKVGSVEVVLNILNYLVGKENVVEEFKMLLGRYPEIAEVLPALLALREKSIKVVEPLADNVFNYKEYVFRKKKKYNPEEIEMLAEFAEKTGLLAMFEKKNIKSVVDYAIGVEVGLDTNARKNRSGTAMEMITELFVKKICSMNNYRYLSQATSHKIKTSFGYNVSVDKSERSFDFAIDNGHKLYLVETNYYGGGGSKLKSVAGEFTTLFSFIKKETPEHGFIWITDGKGWETAKKPLRESFDKVDYVLNLDMVQKGILEDIILQGL	soluble
MLAIFQKAFAHPPEELNSPASHFSGKTPKLPGETLSDFLSHHQNNAFSMNFGDSAVLAYARQETSLRQRLFCGLDGIYCMFLGRLNNLCTLNRQYGLSGKNSNEAMFVIEAYRTLRDRGPYPADQVLRGLEGSFAFVVYDTQTSSVFSALSSDGGESLYWGISGDGSVVMSDDIQIIKQGCAKSFAPFPNGCMFHSETGLKSFDHPTNMMKAMPRIDSEGVLCGASFKVDACSKINSIPRRGSEANWALANSR	soluble
MLAKQRFVLDTTAFTDNQLRELLGDGDLNLSVDRMLDLIARSRIKLNISCHMPPITYKEFTDYMTRYDCPEETLIKAETWIVKKTPNRYDTQIPSQIFYEYVHDIRERMNKGLRISETLLWEAGIQSIIMASRDVKKTEIESEVLGKAIKDLRKKYRSALRKGTLDSAPDLDVLLLAKELGAGVVAADDGIRVWAERLGLRFLNATSFPKMLKEYLKYYE	not soluble
MLANQIKYVILHLTQSIIEYSMANLNCIKAVLAEKGIMSKWLAKTLKKDPATVSKWCNNHSQPDLYTLARIAEVLDVDIHKLICHTKEE	not soluble
MLARTIQRFSVVAKRGYAAAAPAANANPEELRLTFASPDTAVFSNAVVKQVDVPTLAGMVGVLANHVPTIGVLKPGVVSVTTNEGTVQRLFVSSGTLSVNIDGSCQVLAEEVLKVEEIDESAARAELDAAQRASGEGSEVARAEAQIRAEVAEALIKAATNQQ	not soluble
MLDKLDRLEEEYRELEALLSDPEVLKDKGRYQSLSRRYAEMGEVIGLIREYRKVLEDLEQAESLLDDPELKEMAKAEREALLARKEALEKELERHLLPKDPMDERDAIVEIRAGTGGEEAALFARDLFNMYLRFAEEMGFETEVLDSHPTDLGGFSKVVFEVRGPGAYGTFKYESGVHRVQRVPVTETQGRIHTSTATVAVLPKAEEEDFALNMDEIRIDVMRASGPGGQGVNTTDSAVRVVHLPTGIMVTCQDSRSQIKNREKALMILRSRLLEMKRAEEAERLRKTRLAQIGTGERSEKIRTYNFPQSRVTDHRIGFTTHDLEGVLSGHLTPILEALKRADQERQLAALAEG	soluble
MLDKTRLRIAMQKSGRLSDESQELLSRCGIKINLQQQRLIAFAENMPIDILRVRDDDIPGLVMDGVVDLGIIGENVLEEELLNRRAQGDDPRYFTLRRLDFGGCRLSLAAPLDAEYTGPQCLQDTRIATSYPHILKQYLDKQGVRFKSCLLNGSVEVAPRAGLADAICDLVSTGATLEANGLREVEVIYRSKACLIQRDGEMSVDKQQLIDRLMTRIQGVIQARESKYIMMHAPSERLDEIITLLPGAERPTILPLAGDKSRVAMHMVSSETLFWETMEKLKALGASSILVLPIEKMME	not soluble
MLDVQHSKFGFTKGCIIAVFLLSLSRTLNRGQLSLDRFKFWQPTSQLLALDMCLCDASALEHHHHHH	not soluble
MLEDLIGKAYLESAEDRRRGDRSEEVEAIRKYIRSARRTVVPNWNAEKVDAINDVLRSFNLREAEHLQFNTNWADLTRMPAVTKALMALDISGADLVIARGRLGVPGSGSLLVIMDSRGRLLSAAMSPPHVIHSMEVREAVRSEMTHALERIGFKR	soluble
MLEEFLPSLIAHTPRQSARLIVADNGSTDDSVEFLRRQYPQVELILFPENYGFAEGYNRAIAQTECDCVVLLNSDVEVSEGWLDAPLALLQERSDVAAVQPKIRALRDKHAFEYAGAAGGYVDRWGYPFCRGRIFDAVETDTGQYDDIAEVFWASGAALFIRRQVYMAVGGLDPRFFAHQEEIDLCWRLHSRGWR	not soluble
MLEEQLYLLACIFASRADTRNIKKLSTRLGSQSKYLEILCVLWPELDDPKNLLFLRELEEEVQSPEGEETTDEDVIVELLESDSSLIPLIESDTTTRSNRYHELQEFISKKLNNKTLENFEEWLRERILICNEMIPETPLLYSVLWETAKSKVLSTKFIGWVEGVLKPLDHLNKRLHLIFKINEWEKMPDSELFKIIFDGVEDMQGYIGIADVIEDELAPTLSYGKKWETFITEFFNKQQFSLKSDTNYQLFIKLYYSLEKGVKDNSEASRKLQSNVVDILFHNSENLFNLSSLTHKLDELWSILSGFPDEITIEEQKTITALEMKQFMEFFIKCSTKFSFKEIFAITQEEESAQLAHFSSLCHEEFNKANEISSFLQAMYETVLDISKDDKIFTRISMDEKLYSILEILLQMNEFAYIEAIIERFDYSNNTQIYELLVKFFWHFFNNASNGLRKEPEMKKASQTLQIIQKHMSQRAGTNLTKLEVLLEISDKLSHYSINLNKSHNGARDTAFKPSNILEYRDCPLDIISNLLELNPRLYKDLPTTKSLLFGIYDSLSINREGQTGKVEVDLMVLHIDYALVNLDFGTAYELGKQVFEICQEAGQHMMKALGDEHWLTFYQMGKFVDPNWVDNEIPTEIIVLQMSILGRLLEVCPLEEVEIVTSQWSTLELELSARDLVKDKYALDGQNDNKSKVGGIAREIFHNVTNF	soluble
MLEFSSEVSLLDSVKNILLEYGLRFQEPQIEKVDKYIEELLGVPYNLTAHRDLDSAVHKNVVEILLPLKEELKGTLLDVGSGNGVPGLILAIFFSKLKVVLLDSREKSVNFLRGVIEKLDLENVSVVKERAENFSKERREEFDYVTARAVARLNVLVEICTPALKTGGKLLFYKGPSYIEELKEAQRAMKELKVELEKVREYSLKTGERRALLILRKYESSPEKYPRRVGVPFKRPLL	soluble
MLENRLYKRSDFWKLFSRKYKLTKTIEHMMIDSIDIQENDRILEIGIGNGTVFKSITKKLKKGSLKSIDPSKRKVRQISRANRKNMGNGEVFHGYPEDIPFDDRTFNKVFSLHTVQSCTDIRLALREIYRVLQIDGRFYISIDTNTGEKEKTYIQLLKDQHFRDLSVIRRASCLCIVAVKLEHHHHHH	soluble
MLEQIRNTHPLVYQNFSALPDGEKHLRSILAIDRYWEKLDLPVPDVILAGSRLPVDACVEEACDILYAGGTLGLLHAAVMSKKYGRKVLVIDRAEPGRTTRDWNISRGELLRLADTGVFTSEELDSTIVRMYKTGWVEFHAPAERRKRLYMDEVLDCAVDADRLLGMACKKVLAGGGSKVLGHTSFVCCYQFPDHLVVQVEELSGKPRYFRTQVLVDAMGIVSPVAMQLNRGRPQTHVCPTVGTIASGFENADFEVGEILASTEDAEVSGKRGRQLIWEGFPAKGDEYITYLFFYDKVDSPNDKSLLGLFEAYFRKLPEYKKPGPNFTIHRPVFGIIPAYFHDGAGCTRVVSGERIALLGDAASLASPLTFCGFGSVVRNLDRMTSGLDRAMREGRLGAAELANISAYEPNVASMATLMKYMCYDPETDEPGFVNEMMNEVMIVLDELPQRYRQAMFRDEMKVEELVTVMLKVAWRYPKILKATWNKLGVGGSVGFVKNLAGWAISQNEKRGLEHHHHHH	not soluble
MLERIANIQKKLSKSIVERKINEVRKVAAVDVSYKEEKARAALVITTFPEGEVLKTKVIETTVSFPYIPTFFFLRETKPILIATKGETFDVLIVEGHGKAHPRGYGLASHIGVVLRKPTIGVAKRLLKNTPKDTYKKVGKVYVSVGNLITLEDATKIIRAILDESGYPKPLKLADKLSKGRIYEVKNTPSPNRSRKKRGNRGKDNNNSQGNLEHHHHHH	soluble
MLFATSGSGSMLQSWNLKTSKRTGSFDAKSSINAVAISPDGNTLATGIRDNAIKLWNINDGKLIHTLTGHQGQVRTVAFSPDGTLLASGSSDGTVKLWNATTGKEINTFTAHKEQVWSVAFNPDGKTLASTGQDGSVKIWGVSPQLEHHHHHH	soluble
MLFERIYEEGLAQASYFIGCQREGKAIVVDARRDIQTYLDLAAKNNMVISAVTETHIHADYLSGTRELAAATGAEIFLSGEGGADWQYGFTGTTLMHNSTIKLGNITITAKHTPGHTPEHLSFLITDGAVSKDPGFMLSGDFVFVGDVGRPDLLDEAAGGVDTRFAGAQQLFHSLKEQFLALPDHIQVYPGHGAGSPCGKALGAIPSTTVGYEKANAWWAPYLRSDDEAGFVEELLDGQPDAHAYFARMKKQNKQGPAVLSTLSPLVKLEAEEVVEKLGSEAVFVDTREQNQVHLGTVVGALNIPRGAKASNFAAWVIDPQKDAQDLIVLAPDANTAADFRDALLRVGIDTVRYFTNSIDGLPTFVPELISPAELAETNYDALIDIRAKSEFAAGSIPGAQQLSGGSAMWRLNELPAGGTLVTFCQSGARNTVVANALRRAGFTVIELEGSYAAWEKSAANPLEHHHHHH	soluble
MLFKTIFYQKLQKKVTTLFNLETERVIREIENLNKNNPKVIFQAPEGLKLKVEKEIEKIKQYFKQKNINIEIYLWGNTCFGACDLIDNHVKNLNVDLIIHYGHEKLSYANPEIKTLFIPAYHIFNKDEEEKILNDIKNFIEKHKSGGKKVAIATTIQYKKLLKDFNPSIILGCRGEVKEGDVILFVGTGRFHPLMIAYKYQKEVFIYNPLSKCFDKISEEEINKFIKKRILAISKLLLNKPKKVGVVLSTKKGQCRKRVFDEIIKLLEENDVNYLPILVDNISPDILFYDVDCYIIVACPRIVLDDYILYKKPIYTPEEFKLFLKNSFKYKFDEIKEDDFLEHHHHHH	soluble
MLFPTTIAGSLPKPEWLAEPNKLWAPWKSTGAELLRAKRDATILALKLQEDSGIDIVTEGEQARQHFVHGFLEAVEGIDFAHKVEMGIRNDRYKAMVPQVVAPLRLKGRVHGFEGQIARAHSTHKIKFTLPGPMTIIDTIADRHYGDRVKMAFAFAELLNEEAKALQADGIDMIQFDEPAFNVYMSEAADWGVKALERAAQDLTCATAVHICYGYGIKANTDWKETLGAEWRQYEDIFPAIDASSIQQVAVECRNSKVPLELLSLLKGKIVQAGVIDVASDEVETAEDVCATIEAVMQHVPKSNIIATTNCGMAPMRREIAEAKLAALGAGAELARERFKLEHHHHHH	soluble
MLFQNVSIAGLAHVDAPHTLTSKEINGRLQPTYDRLGIKTDVLGDVAGIHARRLWDQDVQASDAATQAARKALIDAGIGIEKIGLLVNTSVSRDYLEPSTASIVSGNLGVGDHCVTFDVANACLAFINGMDIAARMLERGEIDYALVVDGETANLVYEKTLERMTSPDVTEEEFRNELAALTLGCGAAAMVMARTELVPDAPRYKGGVTRSATEWNKLCRGNLDRMVTDTRLLLIEGIKLAQKTFLAARQVLGWAVDELDQFVIHQVSRPHTAAFVKSFGIDPAKVMTIFGEHGNIGPASVPIVLSKLKELGRLKKGDRIALLGIGSGLNCSMAEVVW	soluble
